According to publication PMC3498381, “Isolated Toll-like Receptor Transmembrane Domains Are Capable of Oligomerization” (PLoS ONE, 2012):
Values joined by “and” are separate entries in the source; they are usually repeats but may differ in a detail not shown here. Equal values may be shown once.

Experiments:
TLR2 G593A = assay: homotypic ToxR assay; settings: higher signal = more homotypic TMD association; parent: est. 1.0; read off a plot
[1] = target: synthetic TLR1 transmembrane domain peptide, coumarin-labelled (human); assay: FRET or BRET; coumarin-TLR1 or -TLR6 peptide (donor) fixed at 20 nM, fluorescein-TLR2 peptide (acceptor) titrated 0-1500 nM; 1 mM C14-betaine micelles, 100 mM HEPES pH 7.4; excitation 415 nm; Hill equation
[2] = target: synthetic TLR6 transmembrane domain peptide, coumarin-labelled (human); assay: as above
[3] = target: synthetic TLR2 transmembrane domain peptide, fluorescein-labelled (human); assay: AUC; sedimentation equilibrium; labelled peptide in density matched C14-betaine micelles (10 mM), 100 mM HEPES pH 7.4; FITC-TLR2 read at 495 nm, coumarin-TLR6 at 400 nm; for the heterotypic run FITC-TLR2 with 2 equiv. of coumarin-TLR6; global fit
TMD5 D150A = assay: homotypic ToxR assay; settings: higher signal = more homotypic TMD association; parent: est. 1.0; read off a plot
[4] = target: synthetic TLR6 transmembrane domain peptide, coumarin-labelled (human); assay: AUC; sedimentation equilibrium; labelled peptide in density matched C14-betaine micelles (10 mM), 100 mM HEPES pH 7.4; FITC-TLR2 read at 495 nm, coumarin-TLR6 at 400 nm; for the heterotypic run FITC-TLR2 with 2 equiv. of coumarin-TLR6; global fit
[5] = target: T1, TLR2 transmembrane domain (ToxR chimera); assay: heterotypic ToxR assay; settings: chain shown with the change; competitor TLR2* (nonfunctional ToxR* chimera); PolyLeu* = 1.0; lower signal = more ToxR inhibition = more interaction; parent: est. 0.42; read off a plot
T1 chain: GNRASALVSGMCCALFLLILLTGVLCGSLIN

[6] = target: T2, TLR6 transmembrane domain (ToxR chimera); assay: heterotypic ToxR assay; settings: chain shown with the change; competitor TLR6* (nonfunctional ToxR* chimera); PolyLeu* = 1.0; lower signal = more ToxR inhibition = more interaction; parent: est. 0.24; read off a plot
T2 chain: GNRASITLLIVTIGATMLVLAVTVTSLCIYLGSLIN

[7] = target: T3, TLR4 transmembrane domain (ToxR chimera); assay: heterotypic ToxR assay; settings: chain shown with the change; competitor TLR4* (nonfunctional ToxR* chimera); PolyLeu* = 1.0; lower signal = more ToxR inhibition = more interaction; parent: est. 0.90; read off a plot
T3 chain: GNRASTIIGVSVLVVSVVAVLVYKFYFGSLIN

[8] = target: T4, TLR5 transmembrane domain (ToxR chimera); assay: heterotypic ToxR assay; settings: chain shown with the change; competitor TLR5* (nonfunctional ToxR* chimera); PolyLeu* = 1.0; lower signal = more ToxR inhibition = more interaction; parent: est. 0.53; read off a plot
T4 chain: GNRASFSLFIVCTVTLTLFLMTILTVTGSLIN

[9] = target: T5, TLR10 transmembrane domain (ToxR chimera); assay: heterotypic ToxR assay; settings: chain shown with the change; competitor TLR10* (nonfunctional ToxR* chimera); PolyLeu* = 1.0; lower signal = more ToxR inhibition = more interaction; parent: est. 0.41; read off a plot
T5 chain: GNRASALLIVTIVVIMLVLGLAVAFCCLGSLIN

[10] = target: T6, TLR1 transmembrane domain (ToxR chimera); assay: heterotypic ToxR assay; settings: chain shown with the change; competitor TLR1* (nonfunctional ToxR* chimera); PolyLeu* = 1.0; lower signal = more ToxR inhibition = more interaction; parent: est. 0.47; read off a plot
T6 chain: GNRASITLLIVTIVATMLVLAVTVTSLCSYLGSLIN

[11] = target: T7, TLR2 transmembrane domain C609I (ToxR chimera), O60603; assay: homotypic ToxR assay; settings: chain shown with the change; higher signal = more homotypic TMD association; parent: est. 1.0; read off a plot
T7 chain: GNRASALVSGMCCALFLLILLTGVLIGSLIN

## TLR2 transmembrane domain (ToxR chimera) G593A
TLR2 G593A
  response (normalized Miller units): 1.1

## synthetic TLR2 transmembrane domain peptide, fluorescein-labelled
[1]
  Kd: 0.231 µM
[2]
  Kd: 0.287 µM
[3]
  stoichiometry N: 2 and 4

## TMD5 from latent membrane protein 1 (ToxR* chimera) D150A
TMD5 D150A
  response (normalized Miller units): 0.59

## synthetic TLR6 transmembrane domain peptide, coumarin-labelled
[4]
  stoichiometry N: 2

## GNRASALVSGMCCALFLLILLTGVLIGSLIN [TLR2 transmembrane domain (ToxR chimera) C609I]
[5]
  response (normalized Miller units): 0.55
[6]
  response (normalized Miller units): 0.82
[7]
  response (normalized Miller units): 0.88
[8]
  response (normalized Miller units): 0.81
[9]
  response (normalized Miller units): 0.63
[10]
  response (normalized Miller units): 0.78
[11]
  response (normalized Miller units): 1.1
